How the values were obtained:
[1] = pH stability, residual antimicrobial activity; assay type: physicochemical
Protocol: (§1) The sensitivity of the purified bacteriocin towards different pH, temperature and proteases was evaluated. To determine pH and temperature resistance, the purified peptide was incubated at different pH values between 2.0–12.0 and temperatures 80, 100°C for 30 min and 120°C for 15 min. Different hydrolytic enzymes including pepsin, trypsin, chymotrypsin, proteinase K, pronase E and amylase were incubated with bacteriocin for 6 hours at 37°C to ensure their effect. The enzyme activity was terminated by heating at 80°C before the bacteriocin activity was confirmed.

[2] = test system: pronase E; assay: Resistance to proteolytic enzyme, residual antimicrobial activity; assay type: in vitro ADME; settings: 6 hours at 37°C, enzyme terminated by heating at 80°C
Protocol: as §1

[3] = test system: chymotrypsin; assay: as above; assay type: in vitro ADME; settings: 6 hours at 37°C, enzyme terminated by heating at 80°C
Protocol: as §1

[4] = test system: trypsin; assay: as above; assay type: in vitro ADME; settings: 6 hours at 37°C, enzyme terminated by heating at 80°C
Protocol: as §1

[5] = test system: pepsin; assay: as above; assay type: in vitro ADME; settings: 6 hours at 37°C, enzyme terminated by heating at 80°C
Protocol: as §1

[6] = target: proteinase K (Parengyodontium album, UniProt P06873); assay: as above; assay type: in vitro ADME; settings: 6 hours at 37°C, enzyme terminated by heating at 80°C
Protocol: as §1

[7] = test system: L. monocytogenes; assay: Growth inhibition of test strain; assay type: cell-based; settings: test strain L. monocytogenes (MTCC 839)
Protocol: (§2) The CFB of strain GI-9 was used to determine the antimicrobial activity. Culture was grown for 48 hours in nutrient broth (NB, Himedia) and subsequently cells were removed by centrifugation (10,000 rpm for 10 min, 4°C). The supernatant obtained was filtered by using 0.22 µm filter (Millipore). The filtrate was diluted by two fold dilution and amounts of 100 µl of different dilutions were used to test the activity. These dilutions were added to the wells that are prepared in plates containing nutrient agar medium seeded with test organism. Above test was also performed using minimal medium to check influence of the medium components on antimicrobial activity. A growth curve up to 24 hours was prepared for strain GI-9 to examine the bacteriocin production at different stages. One unit of bacteriocin was defined as the […] dilution that was given an inhibition zone around the well and reciprocal of this dilution is defined as the unit of antimicrobial activity per ml.

[8] = test system: Gram-positive and Gram-negative bacteria; assay: Antibacterial spectrum; assay type: cell-based; settings: wide range of Gram-positive and Gram-negative bacteria
Protocol: as §2
The MIC of bacteriocin for different strains was evaluated by using a microtiter plate dilution assay. […] The first column of the microtiter plate was left as a blank while reading through an ELISA plate reader (Thermo Scientific). The microtiter plates were incubated at 30°C incubator and OD was measured at 600 nm at different time intervals.

[9] = test system: B.subtilis; assay: MIC, microtiter plate dilution assay; assay type: cell-based; settings: purified laterosporulin, micro-titer plates, triplicates, 30°C, OD 600 nm, 48 h
Protocol: (§3) The MIC of bacteriocin for different strains was evaluated by using a microtiter plate dilution assay. Test strains were grown to logarithmic phase under optimal conditions (up to 0.3 OD) and the test was performed in triplicates. Each well of the microtiter plate was added with 200 µl of fresh nutrient medium and 50 µl of test strains in different rows. Subsequently, different dilutions (50 µl) of freshly prepared bacteriocin were added to each well. The first column of the microtiter plate was left as a blank while reading through an ELISA plate reader (Thermo Scientific). The microtiter plates were incubated at 30°C incubator and OD was measured at 600 nm at different time intervals.

[10] = test system: S. aureus; assay: MIC, microtiter plate dilution assay; assay type: cell-based; settings: purified laterosporulin, micro-titer plates, triplicates, 30°C, OD 600 nm, 48 h
Protocol: as §3

[11] = test system: E. coli; assay: Bactericidal effect by scanning electron microscopy; assay type: cell-based; settings: 500 µg/ml purified peptide, 4 hours, 37°C, about 2×10^7 cells/ml; compared to untreated bacteria
Protocol: To examine the bactericidal activity, E.coli cells were grown in NB to an exponential phase, harvested by centrifugation. The pellet obtained was resuspended in fresh NB and aliquots of 5 ml containing about 2×10^7 cells/ml were incubated at 37°C for 4 hours with 500 µg/ml laterosporulin. Samples at 0, 2 and 4 hours interval were centrifuged and pellets were resuspended in 500 µl of phosphate buffer. Each sample was spread on a poly (L-lysine)-coated glass slides (18×18 mm) to immobilize bacterial cells and incubated at 30°C for 90 min. They were fixed with modified Karnovsky's fixative and dehydrated with a graded ethanol series.

[12] = Treatment with dithiothreitol, residual antimicrobial activity; assay type: physicochemical; settings: DTT used to disrupt disulfide bonds; data not shown
[13] = Heat stability, residual antimicrobial activity; assay type: physicochemical; settings: 120°C for 15 min
Protocol: as §1

[14] = test system: E. coli; assay: Growth inhibition assay of the synthetic partial peptide; assay type: cell-based; settings: custom synthesized 19-mer, indicator strain E. coli
Source text: (§4) The molecular mass observed for laterosporulin by MALDI-TOF was 5605.8 Da ( Fig. 3 ), which is in good agreement with mass obtained by gel filtration chromatography ( Fig. 2A ). The N-terminal sequence of laterosporulin yielded partial sequence of ^1A(M)Q(C)QG(C/Q)PDAISGWTHTDYQCH^19 for two independently processed samples. The uncertainties at the 1st, 2nd and 4th positions obtained in N-terminal sequences were considered to predict the antibacterial activity of each possible peptide sequence using a database of peptides with known antimicrobial potency. […] To confirm the antimicrobial activity of this partial peptide, it was custom synthesized, mass was confirmed by MALDI-TOF and the synthetic peptide was examined in growth inhibition assays using indicator strains B. subtilis and E. coli.
(§5) To evaluate antibacterial function of the N-terminal peptide, a 19-mer peptide representing the N-terminal sequence of the bioactive protein was synthesized using standard Fmoc-chemistry on 2-chlorotrityl resin (0.2 mmol/g). Synthesis was carried out on a semi-automated synthesizer (PS-II) (Protein Technologies Inc., AZ USA). It was cleaved with TFA and purified by RP-HPLC system (Dionex, Ultimate-3000) using C-18 analytical column. The purified peptide was subjected to MALDI-TOF analysis for confirmation of molecular mass.

[15] = test system: B. subtilis; assay: as above; assay type: cell-based; settings: custom synthesized 19-mer, indicator strain B. subtilis
Source text: as §4, §5

Sequence of proteinase K (P06873 106-384): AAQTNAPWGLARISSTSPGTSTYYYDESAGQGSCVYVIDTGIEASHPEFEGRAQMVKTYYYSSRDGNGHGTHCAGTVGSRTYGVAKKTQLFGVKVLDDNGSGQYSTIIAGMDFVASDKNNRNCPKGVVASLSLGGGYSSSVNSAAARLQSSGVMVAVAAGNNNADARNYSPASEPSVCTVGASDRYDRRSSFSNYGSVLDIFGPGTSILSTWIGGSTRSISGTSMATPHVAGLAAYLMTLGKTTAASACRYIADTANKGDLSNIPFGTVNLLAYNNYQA

| Substance | pH stability (antimicrobial activity after incubation) ([1]; above pH 10 (tested up to 12.0)) | pH stability (antimicrobial activity after incubation) ([1]; pH between 2.0 to 10.0) | antimicrobial activity after incubation with pronase E [2] | antimicrobial activity after incubation with chymotrypsin [3] | antimicrobial activity after incubation with trypsin [4] | antimicrobial activity after incubation with pepsin [5] | antimicrobial activity after incubation with proteinase K [6] | growth inhibition [7] | antibacterial activity [8] | MIC (sensitivity in words, values only in Fig. 4) [9] | MIC (sensitivity in words, values only in Fig. 4) [10] | bactericidal effect, cell morphology by SEM [11] | antimicrobial activity after treatment with dithiothreitol (DTT) [12] | heat stability (antimicrobial activity after exposure) [13] | antimicrobial activity [14] | antimicrobial activity [15] |
| --- | --- | --- | --- | --- | --- | --- | --- | --- | --- | --- | --- | --- | --- | --- | --- | --- |
| ^1A(M)Q(C)QG(C/Q)PDAISGWTHTDYQCH^19 [laterosporulin, 5.6 kDa bacteriocin purified from culture supernatant of Brevibacillus sp. strain GI-9] | reduced significantly | no reduction in antimicrobial activity | did not show any reduction | did not show any reduction | did not show any reduction | did not show any reduction | did not show any reduction | could inhibit the growth | active | highly sensitive | highly sensitive | significant modifications in cell shape and morphology | did not affect | no reduction in antimicrobial activity |  |  |
| ACQCPDAISGWTHTDYQCH |  |  |  |  |  |  |  |  |  |  |  |  |  |  | weak antimicrobial activity at significantly higher concentration | weak antimicrobial activity at significantly higher concentration |

From paper PMC3293901, “Identification, Purification and Characterization of Laterosporulin, a Novel Bacteriocin Produced by Brevibacillus sp. Strain GI-9” (PLoS ONE, 2012)
